# US20150246959A1 (US Dept. of Health and Human Services, published 2015)
# B1: 6F9mC TCR (TCR)
# TCR alpha: QTVTQSQPEMSVQEAETVTLSCTYDTSESDYYLFWYKQPPSRQMILVIRQEAYKQQNATENRFSVNFQKAAKSFSLKISDSQLGDAAMYFCALRSSGTYKYIFGTGTRLKVLANIQNPEPAVYQLKDPRSQDSTLCLFTDFDSQINVPKTMESGTFITDKTVLDMKAMDSKSNGAIAWSNQTSFTCQDIFKETNATYPSSDVPCDATLTEKSFETDMNLNFQNLSVMGLRILLLKVAGFNLLMTLRLWSS
# TCR beta: GAGVSQSPSNKVTEKGKDVELRCDPISGHTALYWYRQSLGQGLEFLIYFQGNSAPDKSGLPSDRFSAERTGGSVSTLTIQRTQQEDSAVYLCASIRTGPFFSGNTIYFGEGSWLTVVEDLRNVTPPKVSLFEPSKAEIANKQKATLVCLARGFFPDHVELSWWVNGKEVHSGVSTDPQAYKESNYSYCLSSRLRVSATFWHNPRNHFRCQVQFHGLSEEDKWPEGSPKPVTQNISAEAWGRADCGITSASYHQGVLSATILYEILLGKATLYAVLVSGLVLMAMVKRKNS
# Key:
# Assay in all cases: cell-based or functional assay
# [1] = biological target: MAGE-A6: 248-258 peptide presented by HLA-DP*0401 on 293-CIITA cells (human, UniProt P20036 29-260)
# [2] = biological target: MAGE-A3: 243-253 peptide presented by HLA-DP*0401 on 293-CIITA cells (human, UniProt P20036 29-260)
# [3] = biological target: MAGE-A3: 245-258 peptide presented by HLA-DP*0401 on 293-CIITA cells (human, UniProt P20036 29-260)
# [4] = biological target: MAGE-A3: 243-258 peptide presented by HLA-DP*0401 on 293-CIITA cells (human, UniProt P20036 29-260)
# [5] = biological target: MAGE-C1: 113-123 peptide presented by HLA-DP*0401 on 293-CIITA cells (human, UniProt P20036 29-260)
# [6] = biological target: MAGE-D2: 413-428 peptide presented by HLA-DP*0401 on 293-CIITA cells (human, UniProt P20036 29-260)
# [7] = biological target: MAGE-A3: 247-258 peptide presented by HLA-DP*0401 on 293-CIITA cells (human, UniProt P20036 29-260)
# [8] = biological target: MAGE-A4/A9: 249-259 peptide presented by HLA-DP*0401 on 293-CIITA cells (human, UniProt P20036 29-260)
# [9] = biological target: MAGE-A8: 251-261 peptide presented by HLA-DP*0401 on 293-CIITA cells (human, UniProt P20036 29-260)
# [10] = biological target: MAGE-A3: 243-255 peptide presented by HLA-DP*0401 on 293-CIITA cells (human, UniProt P20036 29-260)
# [11] = biological target: MAGE-A3: 249-258 peptide presented by HLA-DP*0401 on 293-CIITA cells (human, UniProt P20036 29-260)
# [12] = biological target: MAGE-A3: 246-258 peptide presented by HLA-DP*0401 on 293-CIITA cells (human, UniProt P20036 29-260)
# [13] = biological target: MAGE-A2/A12: 248-258 peptide presented by HLA-DP*0401 on 293-CIITA cells (human, UniProt P20036 29-260)
# [14] = biological target: MAGE-A1/B4: 241-251 peptide presented by HLA-DP*0401 on 293-CIITA cells (human, UniProt P20036 29-260)
# [15] = biological target: MAGE-A3: 248-258 peptide presented by HLA-DP*0401 on 293-CIITA cells (human, UniProt P20036 29-260)
# [16] = biological target: MAGE-A3: 243-254 peptide presented by HLA-DP*0401 on 293-CIITA cells (human, UniProt P20036 29-260)
# [17] = biological target: Necdin: 237-247 peptide presented by HLA-DP*0401 on 293-CIITA cells (human, UniProt P20036 29-260)
# [18] = biological target: MAGE-L2: 582-597 peptide presented by HLA-DP*0401 on 293-CIITA cells (human, UniProt P20036 29-260)
# [19] = biological target: MAGE-G1: 220-235 peptide presented by HLA-DP*0401 on 293-CIITA cells (human, UniProt P20036 29-260)
# [20] = biological target: MAGE-D4: 300-315 peptide presented by HLA-DP*0401 on 293-CIITA cells (human, UniProt P20036 29-260)
# [21] = biological target: MAGE-A3: 243-256 peptide presented by HLA-DP*0401 on 293-CIITA cells (human, UniProt P20036 29-260)
# [22] = biological target: MAGE-B16: 252-262 peptide presented by HLA-DP*0401 on 293-CIITA cells (human, UniProt P20036 29-260)
# [23] = biological target: MAGE-B10: 250-260 peptide presented by HLA-DP*0401 on 293-CIITA cells (human, UniProt P20036 29-260)
# [24] = biological target: MAGE-B2: 250-260 peptide presented by HLA-DP*0401 on 293-CIITA cells (human, UniProt P20036 29-260)
binder,measurement,setting,value
B1,IFN-g (pg/ml); CD4+ T cells of PBMC-1; 293-CIITA pulsed with peptide,[1],11800 pg/mL
same,IFN-g (pg/ml); CD4+ T cells of PBMC-2; 293-CIITA pulsed with peptide,[1],8370 pg/mL
same,IFN-g (pg/ml); CD4+ T cells of PBMC-1; 293-CIITA pulsed with peptide,[2],40 pg/mL
same,IFN-g (pg/ml); CD4+ T cells of PBMC-2; 293-CIITA pulsed with peptide,[2],45 pg/mL
same,IFN-g (pg/ml); CD4+ T cells of PBMC-1; 293-CIITA pulsed with peptide,[3],15000 pg/mL
same,IFN-g (pg/ml); CD4+ T cells of PBMC-2; 293-CIITA pulsed with peptide,[3],17800 pg/mL
same,IFN-g (pg/ml); CD4+ T cells of PBMC-1; 293-CIITA pulsed with peptide,[4],15200 pg/mL
same,IFN-g (pg/ml); CD4+ T cells of PBMC-2; 293-CIITA pulsed with peptide,[4],17500 pg/mL
same,IFN-g (pg/ml); CD4+ T cells of PBMC-1; 293-CIITA pulsed with peptide,[5],0 pg/mL
same,IFN-g (pg/ml); CD4+ T cells of PBMC-2; 293-CIITA pulsed with peptide,[5],27 pg/mL
same,IFN-g (pg/ml); CD4+ T cells of PBMC-1; 293-CIITA pulsed with peptide,[6],43 pg/mL
same,IFN-g (pg/ml); CD4+ T cells of PBMC-2; 293-CIITA pulsed with peptide,[6],223 pg/mL
same,IFN-g (pg/ml); CD4+ T cells of PBMC-1; 293-CIITA pulsed with peptide,[7],10600 pg/mL
same,IFN-g (pg/ml); CD4+ T cells of PBMC-2; 293-CIITA pulsed with peptide,[7],13300 pg/mL
same,IFN-g (pg/ml); CD4+ T cells of PBMC-1; 293-CIITA pulsed with peptide,[8],23 pg/mL
same,IFN-g (pg/ml); CD4+ T cells of PBMC-2; 293-CIITA pulsed with peptide,[8],26 pg/mL
same,IFN-g (pg/ml); CD4+ T cells of PBMC-1; 293-CIITA pulsed with peptide,[9],58 pg/mL
same,IFN-g (pg/ml); CD4+ T cells of PBMC-2; 293-CIITA pulsed with peptide,[9],41 pg/mL
same,IFN-g (pg/ml); CD4+ T cells of PBMC-1; 293-CIITA pulsed with peptide,[10],137 pg/mL
same,IFN-g (pg/ml); CD4+ T cells of PBMC-2; 293-CIITA pulsed with peptide,[10],117 pg/mL
same,IFN-g (pg/ml); CD4+ T cells of PBMC-1; 293-CIITA pulsed with peptide,[11],1640 pg/mL
same,IFN-g (pg/ml); CD4+ T cells of PBMC-2; 293-CIITA pulsed with peptide,[11],2030 pg/mL
same,IFN-g (pg/ml); CD4+ T cells of PBMC-1; 293-CIITA pulsed with peptide,[12],12700 pg/mL
same,IFN-g (pg/ml); CD4+ T cells of PBMC-2; 293-CIITA pulsed with peptide,[12],16200 pg/mL
same,IFN-g (pg/ml); CD4+ T cells of PBMC-1; 293-CIITA pulsed with peptide,[13],66 pg/mL
same,IFN-g (pg/ml); CD4+ T cells of PBMC-2; 293-CIITA pulsed with peptide,[13],56 pg/mL
same,IFN-g (pg/ml); CD4+ T cells of PBMC-1; 293-CIITA pulsed with peptide,[14],126 pg/mL
same,IFN-g (pg/ml); CD4+ T cells of PBMC-2; 293-CIITA pulsed with peptide,[14],84 pg/mL
same,IFN-g (pg/ml); CD4+ T cells of PBMC-1; 293-CIITA pulsed with peptide,[15],9000 pg/mL
same,IFN-g (pg/ml); CD4+ T cells of PBMC-2; 293-CIITA pulsed with peptide,[15],8700 pg/mL
same,IFN-g (pg/ml); CD4+ T cells of PBMC-1; 293-CIITA pulsed with peptide,[16],0 pg/mL
same,IFN-g (pg/ml); CD4+ T cells of PBMC-2; 293-CIITA pulsed with peptide,[16],39 pg/mL
same,IFN-g (pg/ml); CD4+ T cells of PBMC-1; 293-CIITA pulsed with peptide,[17],22 pg/mL
same,IFN-g (pg/ml); CD4+ T cells of PBMC-2; 293-CIITA pulsed with peptide,[17],32 pg/mL
same,IFN-g (pg/ml); CD4+ T cells of PBMC-1; 293-CIITA pulsed with peptide,[18],56 pg/mL
same,IFN-g (pg/ml); CD4+ T cells of PBMC-2; 293-CIITA pulsed with peptide,[18],107 pg/mL
same,IFN-g (pg/ml); CD4+ T cells of PBMC-1; 293-CIITA pulsed with peptide,[19],29 pg/mL
same,IFN-g (pg/ml); CD4+ T cells of PBMC-2; 293-CIITA pulsed with peptide,[19],33 pg/mL
same,IFN-g (pg/ml); CD4+ T cells of PBMC-1; 293-CIITA pulsed with peptide,[20],234 pg/mL
same,IFN-g (pg/ml); CD4+ T cells of PBMC-2; 293-CIITA pulsed with peptide,[20],268 pg/mL
same,IFN-g (pg/ml); CD4+ T cells of PBMC-1; 293-CIITA pulsed with peptide,[21],1820 pg/mL
same,IFN-g (pg/ml); CD4+ T cells of PBMC-2; 293-CIITA pulsed with peptide,[21],2490 pg/mL
same,IFN-g (pg/ml); CD4+ T cells of PBMC-1; 293-CIITA pulsed with peptide,[22],27 pg/mL
same,IFN-g (pg/ml); CD4+ T cells of PBMC-2; 293-CIITA pulsed with peptide,[22],28 pg/mL
same,IFN-g (pg/ml); CD4+ T cells of PBMC-1; 293-CIITA pulsed with peptide,[23],18 pg/mL
same,IFN-g (pg/ml); CD4+ T cells of PBMC-2; 293-CIITA pulsed with peptide,[23],34 pg/mL
same,IFN-g (pg/ml); CD4+ T cells of PBMC-1; 293-CIITA pulsed with peptide,[24],0 pg/mL
same,IFN-g (pg/ml); CD4+ T cells of PBMC-2; 293-CIITA pulsed with peptide,[24],20 pg/mL
